Results on ten sequences are retold here after a protein production outcome set (Wang et al. 2014).

The nature of the data set: label from the status in PepcDB records.
With “IIAKKTNDIQQDIILHSEFANRHGLIAGATGTGKTVTLKVMAESFSRIGVPVFLADAKGDVSSIAKAGSDNPKFDARIKSLGIESIPFAASPTIFWDLFGEQGHPIRTTISEIGPLLLAQMLNLNDTQEGVLSALFRIADDQGLLLIDFKDLKAMLSYVSENAADLKAEYGNLSPASIGAIQRNLLALGDQGGEQFFGEPSLNILDFIQTDSNGHGYINVLAADKLMNTPKLYATFLLWMLSELFEQLPEVGDLDKPKLVFFFDEAHLLFDNASPALQQKIEQVVRLIRSKGVGIYFITQNPLDLPESVLGQLGNRVQHALRAFTPKDQKAVKTAADTFRANPEFKVDQAITELAVGEALISCLDEQGTPQIVERGWVMPPYSSFSPLSPQERQAFMAQSIVAGVYENAVDRDSAYEMLQRKVNESTAQQQAQAEAKQQEANAKQQAKEQERLAREQQKAEEKAQRDREKLTQDVIGTFAKSAARTLGGPTGQKLVRGLLGSLFGKR”, the protein production entry is “failed”.
“ILARTKIFPWFFDLKRNKMLIDAHWFSYLGIPAGDCEITIEKFFSRVHPNERDMLADALQKQLSEKEIPDSFSYRLQRGDGSWEWFSEQSMYLSKTNDGSPYRIVGVCHSIQEHKNT”: the protein production entry is “failed”.
With “ILWSQFLKFKEMELPAKEADKNRSKGIYQSLEGAVQAGQLKVPPGYHPLDVEKEWGKLHVAILEREKQLRSEFERLECLQRIVTKLQMEAGLCEEQLHQADALLQSDIRLLAAGKVPQRAGEVERDLDKADSMIRLLFNDVQTLKDGRHPQGEQMYRRVYRLHERLVAIRTEYNLRLK”, the protein production result was “failed”.
For the sequence “IRQARDLLVASMRNPPSLELLAQKTGLNVRKLNLGFRRMYRATAYGFLQEYRLEQAYKLISSGEMSVSQAAYHVGYGAAHFATVFRKRFGVSPSRLR”, the protein production result is “failed”.
With “ISPGAAGGAEDGFFVPPTKGTSPTQIWCNNSQLPVDHILAGSFETAMRLLHDQVGVIQFGPYKQLFLQTYARGRTTYQALPCLPSMYGYPNRNWKDAGLKNGVPAVGLKLNDLIQRLQLCYQLTTVGKFEEAVEKFRSILLSVPLLVVDNKQEIAEAQQLITICREYIVGLSVETERKKLPKETLEQQKRICEMAAYFTHSNLQPVHMILVLRTALNLFFKLKNFKTAATFARRLLELGPKPEVAQQTRKILSACEKNPTDAYQLNYDMHNPFDICAASYRPIYRGKPVEKCPLSGACYSPEFKGQICRVTTVTEIGKDVIGLRISPLQFR”, the protein production entry is reported as “failed”.
In the case of “ISSDEALKLIKEQPQLFDEYHDGFRSQVQAWPENPVDVFVDQIRYRCMKPVNAPGGLPGLKDSKEIVIADMGCGEAQLALEINNFFKNYNKKAKKYLKRRHKVHSFDLKKANERITVADIRNVPLPDESCTIVVFCLALMGTNFLDFIKEAYRILAPRGELWIAEIKSRFSDGKGNEFVDALKLMGFFHKKTFDENKMFTRFEFFKPPAEIIEERRQ”, the protein production result was “failed”.
Consider “IVAGFTSIPSQGDNMPAYHARPKQSDGPLPVVIVVQEIFGVHEHIRDICRRLALEGYLAIAPELYFREGDPNDFADIPTLLSGLVAKVPDSQVLADLDHVASWASRNGGDVHRLMITGFCWGGRITWLYAAHNPQLKAAVAWYGKLTGDKSLNSPKQPVDIATDLNAPVLGLYGGQDNSIPQESVETMRQALRAANAKAEIIVYPDAGHAFNADYRPSYHAESAKDGWQRMLEWFTQY”, for which the protein production result was “failed”.
Under “IVISAFEQTLWRSEPETPLKVYQLLSGAHYRTSPLDLRRMMDAPGQHFLQAAGENEIAGALCLVDEGGLSQELSQAVWAGYRRPRGNLVAQSLAAHGSNPLAATLRGRRVSRIAVHPARQREGTGRQLIAGALQYIHDLDYLSVSFGYTEELWRFWQRCGFVLVRMGNHREASSGCYTAMALLPM” stands “failed”; under “KDNTKVIAHRGYWKTEGSAQNSIRSLERASEIGAYGSEFDVHLTADNVLVVYHDNDIQGKHIQSCTYDELKDLQLSNGEKLPTLEQYLKRAKKLKNIRLIFELKSHDTPERNRDAARLSVQMVKRMKLAKRTDYISFNMDACKEFIRLCPKSEVSYLNGELSPMELKELGFTGLDYHYKVLQSHPDWVKDCKVLGMTSNVWTVDDPKLMEEMIDMGVDFITTDLPEETQKILHSRAQ”, “not failed”.
For the sequence “KDPLLNSLIYVSRYYGLANSPEALVNGLPLSDGKLTPFLLPRAAERAGLVAKENRAELEKISSLILPAILVLKGGDSCVLNSINMETREAEVTTLESGMVPISIPLEDLLEQYTGRYFLVKKQFR”, the protein production result is reported as “failed”.
